Reference: paper PMC6306002

System: T1, OhsR:C125S C125S (Corynebacterium glutamicum), ORF:a3d30e29
T1 sequence: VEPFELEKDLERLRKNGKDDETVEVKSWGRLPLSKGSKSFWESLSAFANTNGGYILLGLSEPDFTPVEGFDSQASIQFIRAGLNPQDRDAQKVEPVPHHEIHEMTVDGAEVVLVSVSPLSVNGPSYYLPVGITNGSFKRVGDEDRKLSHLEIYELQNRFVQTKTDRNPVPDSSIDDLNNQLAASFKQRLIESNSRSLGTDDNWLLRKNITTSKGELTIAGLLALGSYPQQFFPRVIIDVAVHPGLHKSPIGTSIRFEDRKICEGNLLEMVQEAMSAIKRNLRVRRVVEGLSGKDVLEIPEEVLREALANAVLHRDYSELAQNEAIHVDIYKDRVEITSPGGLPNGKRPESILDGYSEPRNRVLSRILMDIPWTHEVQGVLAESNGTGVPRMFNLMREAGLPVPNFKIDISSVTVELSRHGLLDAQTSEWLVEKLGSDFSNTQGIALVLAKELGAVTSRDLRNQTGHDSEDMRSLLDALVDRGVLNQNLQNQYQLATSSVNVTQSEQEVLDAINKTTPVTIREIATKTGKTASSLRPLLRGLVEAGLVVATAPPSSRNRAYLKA
Test: EMSA
Conditions: EMSA: 20 mM Tris-HCl pH 7.4, 4 mM MgCl2, 100 mM NaCl, 10% glycerol, room temperature 30 min; 20 ng DNA, 0-4 ug OhsR; 6% native PAGE, 0.5x TBE, SYBR Green

Q: “CACCTTGTTGGTGGGCCGGGATTTTTGTTGTTTAGATTTTTGAAAGCACACTTTTGTCCCTTAACTAGTGCGTGTGTACATTCGACACCAAGATTTGGGCAATATGGTGCCCAAAATCAGGAAATCTTGCTGTCTAATGCACAACGGAAAACTGCTCACGGACGAACTAGTTGTAGCGAGCGTATTCTTTGTGTTCTCTC (double strand) [Pohr (ohr promoter, 200 bp)]” was tested. Which binding did it give?
A: The binding was “no binding”.
